Measurements reported in paper PMC11787515, “Resilience and charge-dependent fibrillation of functional amyloid: Interactions of Pseudomonas biofilm-associated FapB and FapC amyloids” (The Journal of Biological Chemistry, 2024).

B1: FapC from the P. aeruginosa PAO1 strain with an N-terminal histidine tag (natural protein)
chain: GNEGGWHPPKPNPQSNNKGGATALVVDTQQNYNNKVSNFGTLNNASVSGSIKDASGNVGVNVAAGDNNQQANAAALASADASFVFGTATASTSVLQSGYGNTLNNYSNPNTASLSNSANNVSGNLGVNVAAGNFNQQKNDLAAAVSNGQYSTAGSAASQTSTGNTTVNSANYAYGGTYVSLKLNADGSYKGTSDQIGDVYLDTWEGQTHPGGSNTGHIDVDSQAQGAKDLNHDGGAFAFKEKGDVDLKGTVSGFIPAIVGFKTPVTNNASLSNSLQNVSGNVGVNIAAGGGNQQSNSLSIAAGCSSCPAGGESLGF
notes: FapC, Pseudomonas aeruginosa PAO1, UniProt Q9I2F0; cloned into pET28b with the histidine tag at the N-terminal site; This construct probably holds the same stretch without the signal peptide; also called FapC with histidine tag at the N-terminus; source: E. coli BL-21, purified (HisPur cobalt resin, lysis in 6 M guanidinium HCl); not shown: His tag, N-terminal, kept
B2: histidine-tagged CsgB of E. coli (natural protein, E. coli K12, UniProt P0ABK7 22-151, looked up)
chain: AGYDLANSEYNFAVNELSKSSFNQAAIIGQAGTNNSAQLRQGGSKLLAVVAQEGSSNRAKIDQTGDYNLAYIDQAGSANDASISQGAYGNTAMIIQKGSGNKANITQYGTQKTAIVVQRQSQMAIRVTQR
notes: CsgB (curli minor subunit), E. coli K12, UniProt P0ABK7; Expressed from a pET11a plasmid; the construct is not described further; source: E. coli BL21-DE3 slyD KO, purified (nickel-nitrilotriacetic acid beads, from 7.5 M guanidine hydrochloride)
B3: FapC from the P. aeruginosa PAO1 strain with a C-terminal histidine tag (natural protein)
chain: MGNEGGWHPPKPNPQSNNKGGATALVVDTQQNYNNKVSNFGTLNNASVSGSIKDASGNVGVNVAAGDNNQQANAAALASADASFVFGTATASTSVLQSGYGNTLNNYSNPNTASLSNSANNVSGNLGVNVAAGNFNQQKNDLAAAVSNGQYSTAGSAASQTSTGNTTVNSANYAYGGTYVSLKLNADGSYKGTSDQIGDVYLDTWEGQTHPGGSNTGHIDVDSQAQGAKDLNHDGGAFAFKEKGDVDLKGTVSGFIPAIVGFKTPVTNNASLSNSLQNVSGNVGVNIAAGGGNQQSNSLSIAAGCSSCPAGGESLGF
notes: Used as fresh monomers, as fibrils and as sonicated fibril seeds; also called FapC-CterHis; histidine-tagged FapC; source: E. coli BL-21, purified (HisPur cobalt resin, lysis in 6 M guanidinium HCl)
B4: FapC (C-terminal histidine tag) labeled with Cyanine5 (natural protein)
chain: B3 chain
modifications: Cyanine5 attached by NHS ester to lysine residues (primary amines)
notes: FapC, Pseudomonas aeruginosa PAO1, UniProt Q9I2F0, without its signal peptide; same chain as m2; also called FapC labeled with Cyanine5; labeled FapC; source: E. coli BL-21, labeled on HisPur cobalt resin with Cyanine5 NHS ester, eluted and desalted
B5: FapB from the P. aeruginosa PAO1 strain with an N-terminal histidine tag (natural protein)
chain: DPLASRNRASIDDSGTYRGNFALNQAAGDAQQQSNVRVVAVGSAALVGSDQRQHLQLDASQPIAASASISGAALRGSGILGVNQGAGLGNQQINAFRLSLSNGPESLDDSVLAQSVALTKVSGSATPVPGGRSVSTDDRAFAGSSGVVQVNQSAGVGNQSMNTLSVRVME
notes: FapB, Pseudomonas aeruginosa PAO1, UniProt Q9I2E9; Used as fresh monomers, as fibrils and as sonicated fibril seeds; also called FapB-NterHis; histidine-tagged FapB; source: E. coli BL-21, purified (HisPur cobalt resin, lysis in 6 M guanidinium HCl)
B6: FapB (N-terminal histidine tag) labeled with Cyanine3 (natural protein)
chain: B5 chain
modifications: Cyanine3 attached by NHS ester to lysine residues (primary amines)
notes: FapB, Pseudomonas aeruginosa PAO1, UniProt Q9I2E9, 170 residues without the signal peptide; same chain as m1; also called FapB labeled with Cyanine3; labeled FapB; source: E. coli BL-21, labeled on HisPur cobalt resin with Cyanine3 NHS ester, eluted and desalted

Experiments:
[1] = target: the molecule itself; test: thioflavin T fibrillation kinetics + transmission electron microscopy; each protein alone, 25, 50 or 100 uM, universal buffer (Tris, Bis-Tris, sodium acetate) pH 4-9, 20 uM ThT, 37 °C, orbital shaking 300 rpm; fibrils seen by TEM after 80 h; self-assembly into amyloid fibrils
[2] = target: the molecule itself; test: fibril formation, pelleting and formic acid dissolution with SDS-PAGE; 30 uM protein, 37 °C, 48 h, incubated individually; fibrils washed by centrifugation at 13,000g, sonicated and treated with formic acid
[3] = target: B5; test: cell-based or functional assay
[4] = target: the molecule itself; test: transmission electron microscopy of fibrils; fluorophore-labeled FapB and FapC, negative staining with 1% uranyl acetate
[5] = target: B4; test: fluorescence microscopy of labeled purified proteins (colocalisation of monomers with preformed fibrils); Cyanine3-FapB and Cyanine5-FapC; monomers (0 h incubation) mixed with preformed fibrils (72 h incubation) of the other protein; imaged immediately after mixing and after 24 h; Leica DMI8, 20x; settings: both partners purified

Row | Binder | binding result [1] | binding result [4] | other results
1 | B1 | binds | – | –
2 | B2 | – | – | binding result [2]: binds
3 | B3 | binds | – | residual FapB monomer on SDS-PAGE after 9 days of coincubation 1:1 with FapC at pH 5, without formic acid, relative to untreated monomers (9% for FapB alone) [3]: 52%
4 | B4 | – | binds | –
5 | B5 | binds | – | –
6 | B6 | – | binds | binding result [5]: binds
